Target: gB-Ecto.H516P (HSV-1 glycoprotein B ectodomain with H516P and an appended foldon; postfusion) (HSV-1 KOS strain) (UniProt P06437)
Assay: cryo-EM structure

## gB-Ecto.H516P (HSV-1 glycoprotein B ectodomain with H516P and an appended foldon; postfusion) (from UniProt P06437 31-728) (domain or fragment)
  stoichiometry N: 3
